Laboratory results published in US20240010714A1 (MBRACE THERAPEUTICS, published 2024).

B1: anti-GRP78 antibody clone F6 (antibody, IgG1, V domains shown)
VH: QVQLQQSGPGLVKPPQTLSLTCAISGDSVSSNSAAWNWIRQSPSRGLEWLGRTYYRSKWYNDYAVSVKSRITINPDTSKNQFSLQLNSVTPEDTAVYYCARDPYYYDSSGYYYFDAFDIWGQGTMVTVSS
VL: SYELTQPHSVSVAPGQTARITCGGDNIGSKSVHWYQQRPGQAPVLVVYDDSDRPSGIPERFSGSNSENTATLTISGVEAGDEADYYCQVWDSTSHHVVFGGGTKLTVL
notes: Fully human mAb formatted as full-length IgG1; also called F6 mAb; Anti-GRP78 (F6)
B2: anti-GRP78 antibody clone B4 (antibody, IgG1, V domains shown)
VH: QVRLQESGPGLVKPSQTLSLTCTVSGGSISSGGYYWSWIRQHPGKGLEWIGYIYYSGSTYYNPSLESRVTISVDTSKNQFSLKLSSVTAADTAVYYCARYSSIDAFEIWGQGTMVTVSS
VL: SYVLTQPPSVSVAPGKTATITCGGDDIGSKSVHWYQQKPGQAPVLVVYDDGDRPSGIPERFSGSNSGNTATLAISRVEAGDEADYYCQVWDSSSDQYVFGSGTKLTVL
notes: Fully human mAb formatted as full-length IgG1; also called B4 mAb

What was measured:
Test in all cases: alanine scan, high-throughput flow cytometry
[1] = molecular target: T1, GRP78 alanine scan variant R261A (human, UniProt P11021 19-654)
T1 construct: Member of the GRP78 alanine scan library
T1 sequence (P11021 19-654 R261A limits assumed): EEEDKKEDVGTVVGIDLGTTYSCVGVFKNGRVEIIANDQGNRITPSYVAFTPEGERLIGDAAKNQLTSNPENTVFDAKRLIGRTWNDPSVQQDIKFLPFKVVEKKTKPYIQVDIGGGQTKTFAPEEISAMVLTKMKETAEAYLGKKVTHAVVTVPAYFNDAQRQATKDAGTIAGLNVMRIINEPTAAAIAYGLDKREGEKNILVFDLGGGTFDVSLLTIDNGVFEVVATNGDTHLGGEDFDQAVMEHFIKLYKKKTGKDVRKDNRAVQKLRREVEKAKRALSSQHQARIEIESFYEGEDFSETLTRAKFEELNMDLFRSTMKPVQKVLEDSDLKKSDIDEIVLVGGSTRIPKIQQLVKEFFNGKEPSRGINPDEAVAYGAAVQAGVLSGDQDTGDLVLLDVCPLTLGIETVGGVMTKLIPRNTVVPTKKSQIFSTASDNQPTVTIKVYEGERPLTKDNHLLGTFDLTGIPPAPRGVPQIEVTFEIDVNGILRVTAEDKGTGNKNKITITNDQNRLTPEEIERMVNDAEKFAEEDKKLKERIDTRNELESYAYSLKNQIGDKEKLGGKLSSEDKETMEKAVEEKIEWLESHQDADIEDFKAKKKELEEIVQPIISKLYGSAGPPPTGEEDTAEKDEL
Experimental: (§1) To characterize the binding properties of the antibodies described in Example 1 for GRP78, epitope mapping analysis was carried out by alanine scan mutagenesis. An alanine scan library of GRP78 was constructed. Each anti-GRP78 antibody was then screened for binding to each individual GRP78 variant, allowing identification of the target protein residues involved in antibody binding.
(§2) Binding of each test antibody to each GRP78 variant in the alanine scanning library was determined by high-throughput flow cytometry under high stringency conditions (e.g., increased pH, increased salinity, increased temperature and/or increased wash time). Also included in the experiment was a commercially-available monoclonal antibody, 1H11-1H7, which was verified to bind to WT GFR78 on cells and thus determined to be a suitable positive control under these conditions (Thermo Fisher Scientific, Waltham, MA). Antibody binding to each of the GRP78 variant as measured by the fluorescence signal (raw fluorescence data minus the background), was normalized to its binding to the wildtype (WT) GRP78. For each GRP78 variant, such normalized binding to the test antibodies was plotted relative to that to the control antibody.

[2] = molecular target: T2, GRP78 alanine scan variant R279A (human, UniProt P11021 19-654)
T2 construct: Member of the GRP78 alanine scan library
T2 sequence (P11021 19-654 R279A limits assumed): as the sequence (P11021 19-654 R261A limits assumed) above, with A243R, R261A counted along it
Experimental: as §1, §2

[3] = molecular target: T3, GRP78 alanine scan variant H265A (human, UniProt P11021 19-654)
T3 construct: Member of the GRP78 alanine scan library
T3 sequence (P11021 19-654 H265A limits assumed): as the sequence (P11021 19-654 R261A limits assumed) above, with A243R, H247A counted along it
Experimental: as §1, §2

[4] = molecular target: T4, GRP78 alanine scan variant E329A (human, UniProt P11021 19-654)
T4 construct: Member of the GRP78 alanine scan library
T4 sequence (P11021 19-654 E329A limits assumed): as the sequence (P11021 19-654 R261A limits assumed) above, with A243R, E311A counted along it
Experimental: as §1, §2

| Binder | binding normalized to wildtype (WT) GRP78 [1] [%] | binding normalized to wildtype (WT) GRP78 [2] [%] | binding normalized to wildtype (WT) GRP78 [3] [%] | binding normalized to wildtype (WT) GRP78 [4] [%] |
| --- | --- | --- | --- | --- |
| B1 | < 20 | < 20 | – | – |
| B2 | < 20 | – | < 20 | < 20 |
